Measured values reported in article PMC2192206.

Target: lymphocyte function associated-1 (LFA-1, CD11a/CD18) (UniProt P20701)
Assay: radioligand binding

lymphocyte function associated-1 (LFA-1, CD11a/CD18), sequence (P20701 26-1170, chain 1 of 2): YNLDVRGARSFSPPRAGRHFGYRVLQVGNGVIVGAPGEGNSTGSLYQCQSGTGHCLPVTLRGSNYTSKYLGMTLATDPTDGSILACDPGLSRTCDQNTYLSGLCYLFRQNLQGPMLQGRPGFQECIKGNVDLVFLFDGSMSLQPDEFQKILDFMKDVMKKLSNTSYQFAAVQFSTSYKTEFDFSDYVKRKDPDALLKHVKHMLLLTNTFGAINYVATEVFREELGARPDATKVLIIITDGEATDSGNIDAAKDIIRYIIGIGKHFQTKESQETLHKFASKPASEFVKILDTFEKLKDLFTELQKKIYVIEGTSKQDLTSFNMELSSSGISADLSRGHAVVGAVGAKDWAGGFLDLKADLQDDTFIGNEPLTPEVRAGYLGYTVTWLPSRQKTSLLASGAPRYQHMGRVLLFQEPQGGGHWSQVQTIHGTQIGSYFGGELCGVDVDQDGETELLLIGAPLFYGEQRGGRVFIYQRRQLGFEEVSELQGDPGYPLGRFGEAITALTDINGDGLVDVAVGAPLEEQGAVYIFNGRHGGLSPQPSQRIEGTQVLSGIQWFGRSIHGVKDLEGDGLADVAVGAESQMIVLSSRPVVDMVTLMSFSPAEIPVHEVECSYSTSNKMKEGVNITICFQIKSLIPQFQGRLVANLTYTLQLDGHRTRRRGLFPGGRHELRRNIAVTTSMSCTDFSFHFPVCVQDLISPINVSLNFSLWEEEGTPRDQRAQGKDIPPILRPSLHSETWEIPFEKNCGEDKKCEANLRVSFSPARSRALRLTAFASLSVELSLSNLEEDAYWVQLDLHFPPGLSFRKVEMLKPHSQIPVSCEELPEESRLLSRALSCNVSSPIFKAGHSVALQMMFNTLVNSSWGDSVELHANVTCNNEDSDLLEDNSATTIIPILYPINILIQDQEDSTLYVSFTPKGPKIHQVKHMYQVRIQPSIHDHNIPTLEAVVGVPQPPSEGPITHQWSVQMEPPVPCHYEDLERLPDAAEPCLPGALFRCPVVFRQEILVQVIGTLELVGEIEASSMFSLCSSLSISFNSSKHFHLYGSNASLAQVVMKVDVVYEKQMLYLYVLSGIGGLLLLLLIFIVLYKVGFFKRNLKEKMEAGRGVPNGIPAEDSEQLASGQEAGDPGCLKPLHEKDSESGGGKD
lymphocyte function associated-1 (LFA-1, CD11a/CD18), sequence (P05107 23-769, chain 2 of 2, further chain): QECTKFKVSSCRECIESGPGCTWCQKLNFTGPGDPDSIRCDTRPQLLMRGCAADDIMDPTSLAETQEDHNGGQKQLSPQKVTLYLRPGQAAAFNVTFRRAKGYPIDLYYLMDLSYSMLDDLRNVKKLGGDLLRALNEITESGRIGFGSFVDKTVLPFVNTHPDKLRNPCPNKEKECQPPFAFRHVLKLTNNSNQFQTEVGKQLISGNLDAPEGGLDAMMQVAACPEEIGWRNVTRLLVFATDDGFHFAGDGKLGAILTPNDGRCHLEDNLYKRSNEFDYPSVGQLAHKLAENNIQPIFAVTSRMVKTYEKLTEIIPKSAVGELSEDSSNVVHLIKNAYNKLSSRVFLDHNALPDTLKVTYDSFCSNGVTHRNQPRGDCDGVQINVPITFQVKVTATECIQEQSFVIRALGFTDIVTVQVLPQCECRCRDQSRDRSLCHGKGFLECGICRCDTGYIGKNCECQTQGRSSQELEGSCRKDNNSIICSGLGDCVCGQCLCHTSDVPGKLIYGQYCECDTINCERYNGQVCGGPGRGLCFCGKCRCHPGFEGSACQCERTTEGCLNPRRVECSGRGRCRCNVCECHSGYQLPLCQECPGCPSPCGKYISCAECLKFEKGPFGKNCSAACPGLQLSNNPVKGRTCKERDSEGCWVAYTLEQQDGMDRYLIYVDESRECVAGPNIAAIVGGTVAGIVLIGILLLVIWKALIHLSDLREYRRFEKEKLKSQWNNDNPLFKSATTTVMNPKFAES

## ICAM-1-HA dimer (from UniProt P05362 28-480) (complex)
  KD of the high affinity component: 8 nM
